Measured values as given in article PMC5321760.
One block for each substance: values may come before it.

How the values were obtained:
[1] = molecular target: αIIbβ3 integrin (immobilized) (UniProt P08514); assay: ELISA; solid-phase binding: αVβ3 or αIIbβ3 coated on microtiter wells (250 ng per well), blocked with BSA; recalcified plasma treated with PDI-CCCC, PDI-AAAA, ERp57-CCCC or BSA and 0.3 mM DTT for 10 min at 37 °C, stopped with 20 mM NEM, diluted 1:100, 1 h; bound vitronectin detected with rabbit anti-vitronectin and anti-rabbit IgG-HRP
[2] = molecular target: αVβ3 integrin (immobilized) (UniProt P06756); assay: as above
Sequence of UniProt P06756 (P06756 31-1048, chain 1 of 2): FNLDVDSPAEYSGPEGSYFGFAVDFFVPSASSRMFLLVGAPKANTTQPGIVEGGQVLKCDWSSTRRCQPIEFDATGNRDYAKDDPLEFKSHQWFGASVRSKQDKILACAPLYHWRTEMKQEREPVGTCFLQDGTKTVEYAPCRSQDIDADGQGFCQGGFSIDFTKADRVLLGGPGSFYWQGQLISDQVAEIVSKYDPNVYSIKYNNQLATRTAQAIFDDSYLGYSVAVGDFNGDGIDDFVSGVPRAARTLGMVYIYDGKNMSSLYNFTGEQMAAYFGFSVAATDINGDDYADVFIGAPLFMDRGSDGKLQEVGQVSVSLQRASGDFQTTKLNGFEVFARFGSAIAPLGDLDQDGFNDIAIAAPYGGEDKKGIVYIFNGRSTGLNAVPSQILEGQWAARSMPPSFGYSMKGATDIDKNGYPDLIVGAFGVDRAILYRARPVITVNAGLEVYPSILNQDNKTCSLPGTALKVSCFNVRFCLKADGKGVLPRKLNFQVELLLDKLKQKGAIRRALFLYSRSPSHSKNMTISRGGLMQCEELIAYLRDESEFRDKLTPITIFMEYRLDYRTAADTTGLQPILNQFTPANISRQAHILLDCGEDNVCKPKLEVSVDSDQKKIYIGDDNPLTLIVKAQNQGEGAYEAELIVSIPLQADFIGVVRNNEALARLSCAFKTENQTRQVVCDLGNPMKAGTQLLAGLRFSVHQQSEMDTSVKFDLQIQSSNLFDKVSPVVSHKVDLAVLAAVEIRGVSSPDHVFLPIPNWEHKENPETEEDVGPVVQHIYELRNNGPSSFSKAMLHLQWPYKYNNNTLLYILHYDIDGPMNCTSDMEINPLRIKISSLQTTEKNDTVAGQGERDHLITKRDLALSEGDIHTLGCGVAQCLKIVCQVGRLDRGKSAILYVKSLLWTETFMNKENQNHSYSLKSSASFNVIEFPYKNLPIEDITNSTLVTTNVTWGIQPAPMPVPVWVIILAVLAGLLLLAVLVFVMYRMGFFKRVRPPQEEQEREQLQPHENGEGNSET
Sequence of UniProt P06756 (P05106 27-718, chain 2 of 2, further chain): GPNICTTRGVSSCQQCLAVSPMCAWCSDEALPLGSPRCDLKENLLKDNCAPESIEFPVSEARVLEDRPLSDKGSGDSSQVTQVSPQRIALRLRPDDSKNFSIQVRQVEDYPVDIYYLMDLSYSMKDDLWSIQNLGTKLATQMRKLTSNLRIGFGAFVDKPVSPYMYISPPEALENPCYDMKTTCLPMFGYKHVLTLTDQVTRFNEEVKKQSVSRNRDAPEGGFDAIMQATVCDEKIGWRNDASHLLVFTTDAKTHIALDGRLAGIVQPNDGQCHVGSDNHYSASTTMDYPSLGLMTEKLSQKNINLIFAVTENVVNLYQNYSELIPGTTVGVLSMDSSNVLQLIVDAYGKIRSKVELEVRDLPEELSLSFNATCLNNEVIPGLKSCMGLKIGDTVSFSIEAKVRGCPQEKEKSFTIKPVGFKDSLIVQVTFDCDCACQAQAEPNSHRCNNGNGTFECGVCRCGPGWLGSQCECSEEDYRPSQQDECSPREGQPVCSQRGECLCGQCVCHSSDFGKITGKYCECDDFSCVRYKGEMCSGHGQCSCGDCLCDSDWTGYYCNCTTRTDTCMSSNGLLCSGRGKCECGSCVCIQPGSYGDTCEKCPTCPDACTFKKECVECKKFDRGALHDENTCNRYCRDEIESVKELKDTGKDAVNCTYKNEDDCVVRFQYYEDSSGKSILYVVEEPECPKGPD

[3] = molecular target: plasma vitronectin (human (endogenous in plasma; the donor is not stated, anti-human vitronectin antibodies were used))
[4] = molecular target: PDI–CACA (human) (UniProt P07237); assay: pull-down; kinetic trapping: DTT-reduced FLAG-/SBP-tagged PDI or ERp57 variant (500 ug) added to 5 ml recalcified platelet-rich plasma with GPRP, collagen and thrombin, 3 min at 23°, stopped with hirudin and 20 mM NEM; streptavidin-agarose, washes with 500 mM NaCl and 1.5% Triton X-100, eluted with biotin; non-reducing and reducing 1D or 2D SDS-PAGE, Western blot for FLAG and vitronectin; the complex is a mixed disulfide

fold increase in bound vitronectin at the highest PDI concentration [1]: > 3 fold
fold increase in bound vitronectin at the highest PDI concentration (15 μM) [2]: 4 fold
Substance: PDI-reduced plasma vitronectin (natural protein)

PEG5000-maleimide incorporated into plasma vitronectin after reduction by the enzyme in NEM-pretreated platelet-poor plasma (0 to 5 min at 1 uM; 0.25 to 2.5 uM for 5 min), gel shift on Western blot (moles per mole of vitronectin) [3]: 3.6
Substance: PDI–CCCC (wild type protein disulfide isomerase) (from UniProt P07237 18-508) (enzyme)

stoichiometry N [4]: 1
Substance: plasma vitronectin (natural protein)
